The results in this text go back to the supplement of paper PMC12042874.

± gives the uncertainty stated by the source.

The nature of this series: amyloid nucleation score (Sup35N fusion, yeast selection) (log enrichment); library NNK1; higher = more nucleation; inactive = no reads after selection. Put shortly:
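After 24 hours of induction with 100 μM copper sulfate, psi-negative yeast expressing peptides of 20 random codons fused to Sup35N were grown for 7 days at 30°C on medium lacking adenine and uracil. Input and output plasmid inserts were sequenced with Illumina, and sequences with under 100 input reads were discarded. Scores for nucleation are the DiMSum log enrichment of output over input reads, centred on the mode score of non-aggregating sequences.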
In the case of MCGDIPQ, the amyloid nucleation score was determined as 0.35 ± 0.74. With MCGQLV the figure was -0.447 ± 0.74; with MCNVGTVRAYSLIQGGIRQC, 0.373 ± 0.34; with MCVGRDISGEWSYYQCMVEL, 0.495 ± 0.28. To MCVILVELYQRGSWYTRKVM belongs -0.206 ± 1.1; to MCVLYMGGSFRF, 1.58 ± 0.44; to MCWPTDAEDAICTSLK, 2.12 ± 0.11. To MDKLMSMELLSFLGNRSVHV belongs “inactive”; to MDSFVITSFSYNTSLTMRIL, 1.4 ± 0.42. MDWYIVYRPAYTLLCRIHVR showed an amyloid nucleation score of 1.16 ± 0.39. For MECSASYLYVWKIANTLGRM, the amyloid nucleation score was found to be 0.637 ± 0.31.

Substance MEFNMWYLFGDLLVTLDWPK registered an amyloid nucleation score of 0.044 ± 0.45. With MEHYLACIWITHVCF the figure was 0.117 ± 1.1; with MEPFSAC, -0.276 ± 1.9. To MFFGWLFHYLLSSTYMFVSL belongs -0.266 ± 0.72; to MFFSCGVLTILNWIKLKMAR, -0.839 ± 1.1; to MFGAHLA, “inactive”. MFGGYRSC: the amyloid nucleation score came out at 0.159 ± 1.2. With MFIVYRMDLEFM the figure was 1.64 ± 0.51. In the case of MFLYLLVVTP, the amyloid nucleation score result is “inactive”. With MFRRFSWGR the figure was -0.198 ± 0.44; with MFRWHVLGKKITP, -0.067 ± 0.37.

In turn, MFTNLQIWWDSMACYFWDVF showed an amyloid nucleation score of 0.923 ± 0.48.

MFVGGRTNTQMYHMDVVPFQ: the amyloid nucleation score was 1.13 ± 0.63. With MGCLN the figure was 0.082 ± 0.62; with MGGWNGNGIFCAYIYM, 0.344 ± 0.15; with MGKNMVANWILHHRHSQ, -0.343 ± 0.46.

Regarding MGTRILSRTFVVYTTPGYCW, the amyloid nucleation score was determined as 0.093 ± 0.27.

With MGTSITI, the amyloid nucleation score was -0.202 ± 0.84. With MGVVRLAS the figure was -0.149 ± 0.27; with MHLCINWSLSCRAADQFMRR, 3.53 ± 0.17. With MHPAVVYCPLIK the figure was 0.735 ± 0.64. To MHTKRTTDNKYGSY belongs -0.208 ± 0.38; to MIMMDLHCGVILRALGEHGP, 3.34 ± 0.11.

For MIRGLPQMMNWVP, the amyloid nucleation score was determined as 0.758 ± 0.38. With MIWPDGQRLMRPTLRMYKTS the figure was 0.279 ± 0.36. MIWVWNRYIIPYFRFCGATL came in with an amyloid nucleation score of 0.268 ± 1.2. To MKDVILRTWYLRQGEGWGAS belongs 0.026 ± 0.4; to MKLWMEMRWGRG, 5.41 ± 0.064; to MKVDNSVLMPATTHQRNMQG, -0.211 ± 0.67. With MLEGMRRWNNIALVVIRGVG the figure was -0.556 ± 1.1; with MLGCVGSCTR, -1.08 ± 1.1; with MLLACPHLTGYGVILIASIA, -0.292 ± 0.36. With MLLALVIEADRRRWSVNGMY the figure was 2.93 ± 0.18; with MLLSWMNAMVFTRRVHLAEP, -0.469 ± 1.2. In the case of MLLWQRSGMQLLAGLSHRVR, the amyloid nucleation score was -0.702 ± 0.99. In the case of MLQFFVSWGILVKICVWTVG, the amyloid nucleation score result was “inactive”.

With MLSVRTGISGLQSVRTKALA, the amyloid nucleation score is -0.33 ± 0.51. MLSYVRIGSDQDVVWSDLQR: the amyloid nucleation score came out at 2 ± 0.1. In turn, MLTRLHVSLSCHFYLWRSL came in with an amyloid nucleation score of 0.838 ± 0.56. Take MLVCDWKTDLGNI: the amyloid nucleation score was 0.811 ± 0.64. To MLVRG belongs -0.351 ± 0.49; to MMAFCS, 0.264 ± 0.39. To MMAFDRRCLGFPMNVGYD belongs 1.07 ± 0.46; to MMDVV, -0.756 ± 0.58; to MMFAKDSI, 0.372 ± 0.47. To MMGIMYLWTWYCN belongs 0.385 ± 0.58.

In the case of MMGLY, the amyloid nucleation score was -0.038 ± 0.32.

MMGNNQRSPYDMDREASITF: the amyloid nucleation score came to 0.64 ± 0.43. With MMPVRWHMFDAWDLWIDLER the figure was -0.456 ± 0.88; with MMTGFNNIPTIKQLGSCAHY, 0.291 ± 0.97; with MMWLCAVFPGIRFYGYPGLN, -1.88 ± 2.7. With MNALGSTYWDQQSAQQSMWS the figure was 4.92 ± 0.068; with MNCLTSRILNVLIGSGCN, 3.33 ± 0.076. For the substance MNFCYLCTTWWSYYFQ, the amyloid nucleation score was -0.38 ± 0.32.

Take MNLSVSVPVHTRLDMMFM: the amyloid nucleation score is 5.616 ± 0.049. To MNLSYSTIVIYHRNEDCNVY belongs 4.08 ± 0.094. With MNPTFILRTGSRGGDYWS the figure was 0.206 ± 0.52; with MNSVGAGWFGLRCNYRAHEA, 0.252 ± 1.1; with MNTSVAWMVR, -0.149 ± 0.32. To MNVVILEAYGRSPIGMQAFF belongs 2.59 ± 0.18; to MPGSTLLSAKMTSLGGTALW, 0.392 ± 0.4. MPKRSKHFVNWVVNA: the amyloid nucleation score is -0.265 ± 0.29. With MPTLNYIVKCSREVTGGILD the entry was “inactive”; with MQVVVYKYLTMYQR, 1.29 ± 0.76. In the case of MQWPYCGMTFCYTW, the amyloid nucleation score was -0.047 ± 0.57. MRAFGVNGTVQRWWGSCSRF yielded an amyloid nucleation score of 0.766 ± 0.46. To MREDIAFDFW belongs 4.22 ± 0.15; to MRGMADYC, -0.251 ± 0.88. To MRIPVRLVV belongs 0.027 ± 0.54.

Regarding MRIRAKSALSVSLECDLQFL, the amyloid nucleation score came out at 0.655 ± 0.3. Regarding MRTVIITCCRTFECPMERCS, the amyloid nucleation score was -2.56 ± 1.4. To MRYIKSVVSSVCSYNLPLRA belongs 0.525 ± 0.44; to MSEFADTIMIVNGCGWRVVR, -0.039 ± 0.26; to MSHWTMGREWITHLFSGHWG, 0.945 ± 1.1. Substance MSMVNKTSWCYLFCNLRVVY had an amyloid nucleation score of -1.08 ± 0.86.

For MSNIVALHCGSFFTDYECIW, the amyloid nucleation score amounted to 7.608 ± 0.046. The substance MSRIVF registered an amyloid nucleation score of -0.003 ± 0.71.

In turn, MSRMFRVLHRVLSSW came in with an amyloid nucleation score of -0.538 ± 1.2. To MSSESLSMGRLDMG belongs “inactive”. MSSLIVYLRDAPRVLNLYVR showed an amyloid nucleation score of 2.5 ± 0.17. To MTFVMHIAWG belongs 1.55 ± 0.26; to MTGINYRAVRCAEGCRASRR, 0.216 ± 0.29. To MTHAFLRWSYLFRNIWMHVF belongs 0.349 ± 1.2; to MTHLNPMSFVDPKFVPVDFS, 2.48 ± 0.47. To MTSCDWTTTKSSDVAPDWRM belongs 0.424 ± 0.52.

MVHCRQI gave an amyloid nucleation score of 0.219 ± 0.32. MVLFKELIMVFTQARAS had an amyloid nucleation score of 0.156 ± 0.28. With MVQAPLTSQPYNNGMVRQK the figure was -0.055 ± 0.5. With MVRWLNTSRKFT the figure was 1.06 ± 0.73; with MWCLGLDIFRIRVYRCAGGG, -0.348 ± 0.28; with MWEALW, 0.601 ± 0.54. In the case of MWNRFWLLDALLWGNYLSQS, the amyloid nucleation score was 0.043 ± 0.33. Take MWRKHR: the amyloid nucleation score was -0.543 ± 0.65. With MWVYFVLCKKVAEGVCFIDT the figure was 0.996 ± 0.61; with MYASWSVF, -0.223 ± 0.34.

The substance MYCGS registered an amyloid nucleation score of -0.279 ± 0.27. With MYFVRVSSDA the figure was 0.351 ± 0.54. To MYGITKSA belongs 0.195 ± 0.64; to MYREYLGRSRRQFYFGTGKH, 3.82 ± 0.16; to MYSLVCNHCAQSISIPSRWS, 3.97 ± 0.11. With NAVITESLIDKAPVGSNWDT the figure was -0.498 ± 0.59; with NAYLKVIYQRSFGAPNRH, -0.1 ± 0.69.

With NAYRYMCRCGFLSLRAGWRV, the amyloid nucleation score result is “inactive”.

The substance NCECSFWKREGSWGTLVSGM had an amyloid nucleation score of 0.201 ± 0.51. With NCEFIVWGVSSNFEMVFGLM the figure was -0.267 ± 0.9; with NCFRLLCFRGLVGQRGL, 0.141 ± 0.59; with NCFSMRQRECCRYRMCVNGI, 1.01 ± 0.55.

For NCRMTGCLSQRRQKECCNRI, the amyloid nucleation score was -0.755 ± 0.51. To NCVVYDIEYICWNIGGKI belongs 5.71 ± 0.077; to NCYGYVEKWWGVCTNDPLGR, -0.133 ± 0.25. In turn, NDDNCSSVSWWNKWCSTR displayed an amyloid nucleation score of 1.44 ± 0.41. With NDHDGEFDD the figure was 0.239 ± 0.57; with NDNGVMLVLCEGMY, 0.014 ± 0.32; with NDRLFLHGARKLTVLIFVVG, -0.015 ± 0.3. For NDRSFYQITKILHPRDASQN, the amyloid nucleation score was -1.08 ± 0.55. Consider NDTVWVVWMLKELSLYVELV, for which the amyloid nucleation score was found to be 0.329 ± 0.53. To NDWIFD belongs “inactive”; to NECDVALIRWWG, 0.419 ± 0.45; to NELNLYGSEFAFYWVDKLCH, 4.13 ± 0.073.

The substance NFARDLKRHVRMG returned an amyloid nucleation score of 0.461 ± 0.35. Consider NFFVDDSDRGQYKFDPFCCG, for which the amyloid nucleation score entry is “inactive”. With NFGAQRYHSRLLL the figure was -0.223 ± 0.59. On to NFGIRGRRTAGLEVRCLRRC, for which the amyloid nucleation score is -1.22 ± 2.7. For NFKQGNSYVCNSCLGCGVSR, the amyloid nucleation score was determined as 6.45 ± 0.084. With NFLCFGFFRWTVPDWAQFYV the figure was 3.76 ± 0.12. To NFLMKWCEINTCLLVSFSYW belongs 4.5 ± 0.071; to NFPKHFSSALRF, -0.081 ± 0.35; to NFRNLSYCFQFPMFVARRLK, 1.06 ± 0.67. To NFRNSGESSTNYSK belongs “inactive”; to NFSFLGFLSRYGCLFQVSS, 0.582 ± 0.6. The substance NFSLIFENMIALFPYPARKR gave an amyloid nucleation score of 7.742 ± 0.056.
